For this assay, the target named is T1, asialofetuin (Sigma-Aldrich A4781), coated on glass (UniProt P12763 19-359, an extensively glycosylated protein (so in the source)).
T1 construct: also called asialofetuin-coated surface
T1 sequence: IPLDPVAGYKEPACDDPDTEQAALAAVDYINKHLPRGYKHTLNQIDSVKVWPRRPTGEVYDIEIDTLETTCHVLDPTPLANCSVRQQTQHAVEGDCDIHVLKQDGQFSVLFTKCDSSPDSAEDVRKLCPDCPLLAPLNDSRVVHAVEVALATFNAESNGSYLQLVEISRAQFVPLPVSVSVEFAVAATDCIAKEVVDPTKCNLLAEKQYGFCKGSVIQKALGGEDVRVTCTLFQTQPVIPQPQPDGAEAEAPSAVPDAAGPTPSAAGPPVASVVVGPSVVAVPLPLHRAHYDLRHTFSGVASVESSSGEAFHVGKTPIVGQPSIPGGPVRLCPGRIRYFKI
The assay can be described thus: in situ anti-FLAG immunostaining of biofilms grown on asialofetuin-coated glass.

B1: Bap1 (Biofilm-Associated Protein 1 of V. cholerae, wild type), tagged with 3xFLAG at the C-terminus (other)
chain: SSSSDIQTKLKWSWSTSVFHPESNQVMAAPIVVQLNDDNGDGKIDEKDVADIIVVTFEGNKYANGGYIRALSGVDGSELWSYSNGGVIADARYAPAAADLDGDGLIEIVSTSALTPYINILDHQGNIKKQLLKSASGWRSVGDIALADINGDGNIEILAADGVYSYESGLLFSHDWAPSSIAFDSNGDGQREVFANGTLYQNNGAYLWQYQANDTVWFSSVANLDGDDKPELVVSVPASLSTPENSEIAVLEHDGSVKWRVNNLSNPGGSVQAVSSFLGKPSSSATTVDAQSAVYGYTDWAHQQRVLAENHQLAIRSGAVVDAIGANSQNMIGGSGGSLSTIDTSKVRAIDVTYGKNKYTWKYGVLEMSFTLDNGAKVTVGSKDSAFTYLGLEWKTKTVPYLGVEWRTKTVSYWFFGWHTKQVAYLAPVWKEKTIPYAVPVTLSKSTTVRYDIPQGSQLLGMNVWSKEKHLFKHKQQVNAVQFLVGKVTADQSHMGIVYAGYYAVDMYDAQGNKVWSVANDDLNSGKIGVSAYDFTGDGIDEVLVQDRLRMRILDGQTGRVMGIIANSSGTLWEYPVVADLEGNNNASLIMVANDYDRESQVNHGVFVYESANPSKPWRNATRIWNQYAFNFSDINANGTIPTNAQPSWLTHNSFRSATIRVPLK
notes: also called VC1888; WT Bap1; not shown: C-terminal 3xFLAG tag
For B1, the binding result is on record as “no binding”.
